Results taken from PMC5066740.

Tests used:
[1] = molecular target: MtTT8 (Medicago truncatula)
[2] = molecular target: MtWD40-1 (Medicago truncatula)

MtTT8 (Medicago truncatula), sequence (main, as listed by the source): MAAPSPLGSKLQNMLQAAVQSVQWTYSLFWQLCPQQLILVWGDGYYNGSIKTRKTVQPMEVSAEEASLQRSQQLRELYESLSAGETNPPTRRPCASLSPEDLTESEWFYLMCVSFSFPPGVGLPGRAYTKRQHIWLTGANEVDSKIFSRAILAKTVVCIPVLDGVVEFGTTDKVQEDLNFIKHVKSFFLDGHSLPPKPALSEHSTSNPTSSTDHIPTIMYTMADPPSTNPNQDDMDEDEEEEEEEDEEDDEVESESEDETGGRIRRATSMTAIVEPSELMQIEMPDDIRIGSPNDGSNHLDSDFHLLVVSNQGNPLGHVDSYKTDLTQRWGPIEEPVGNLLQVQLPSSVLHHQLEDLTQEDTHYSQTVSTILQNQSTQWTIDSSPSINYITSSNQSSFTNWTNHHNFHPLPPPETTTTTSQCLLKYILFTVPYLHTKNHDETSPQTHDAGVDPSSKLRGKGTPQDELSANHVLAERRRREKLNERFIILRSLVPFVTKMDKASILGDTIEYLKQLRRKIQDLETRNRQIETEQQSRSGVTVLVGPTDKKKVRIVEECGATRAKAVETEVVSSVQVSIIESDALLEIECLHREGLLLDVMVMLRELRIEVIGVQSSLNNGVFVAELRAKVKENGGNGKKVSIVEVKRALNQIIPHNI

ANR promoter::luciferase reporter activity in Arabidopsis leaves co-bombarded with 35S-driven MtPAR, MtTT8 and MtWD40-1 effectors, against empty vector controls [1]: 9 fold
ANR promoter::luciferase reporter activity in Arabidopsis leaves co-bombarded with 35S-driven MtPAR, MtTT8 and MtWD40-1 effectors, against empty vector controls [2]: 9 fold
Substance: Medicago PROANTHOCYANIDIN REGULATOR (MtPAR) (natural protein)
